Assays:
Recombinant ERα-LBD = target: T1, Recombinant ERα-LBD (human, UniProt P03372 302-595); assay: SPR
T1 sequence (looked up): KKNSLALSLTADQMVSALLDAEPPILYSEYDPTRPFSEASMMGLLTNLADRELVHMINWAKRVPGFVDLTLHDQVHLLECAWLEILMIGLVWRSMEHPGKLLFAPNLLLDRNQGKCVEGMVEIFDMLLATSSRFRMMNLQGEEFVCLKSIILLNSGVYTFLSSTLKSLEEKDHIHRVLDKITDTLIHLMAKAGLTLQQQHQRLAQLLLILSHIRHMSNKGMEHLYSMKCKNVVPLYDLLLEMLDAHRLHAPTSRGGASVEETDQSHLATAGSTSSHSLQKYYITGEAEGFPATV

Recombinant AR-LBD = target: T2, Recombinant AR-LBD (human, UniProt P10275 672-920); assay: SPR
T2 sequence (looked up): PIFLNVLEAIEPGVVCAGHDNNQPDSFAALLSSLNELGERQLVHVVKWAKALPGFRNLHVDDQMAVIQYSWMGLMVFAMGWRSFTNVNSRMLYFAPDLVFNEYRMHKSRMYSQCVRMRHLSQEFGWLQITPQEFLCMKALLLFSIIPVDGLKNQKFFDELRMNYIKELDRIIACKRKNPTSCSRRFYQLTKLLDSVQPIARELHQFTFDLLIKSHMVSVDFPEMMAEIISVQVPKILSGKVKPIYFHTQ

Binder: KPEWPAAELLLSLLGRLLVHQFSNKSTE [human NIPBL-C2^WT peptide]
- binding result (Recombinant ERα-LBD): binds
- binding result (Recombinant AR-LBD): binds

Reference: paper PMC11661173 (bioRxiv, 2025)
